Sequences and labels used below:
T1: CD52 human leukocyte antigen (human, UniProt P31358 25-36)
T1 construct: whole, on cells; also called CD52 antigen
T1 chain (looked up): GQNDTSQTSSPS

B1: DIVH2/DIVK2 (antibody, human IgG1, V domains shown)
VH: EVQLLESGGGLVQPGGSLRLSCAGSGFTFTDFYMNWIRQPPGKAPEWIGFIRDKAKGYTTEYNPSVKGRFTISRDNSKNTLYLQMNSLRAEDTAVYYCAREGHTAAPFDYWGQGTLVTVSS
VL: DIQMTQSPSSLSASVGDRVTITCKASQNIDKYLNWYQQKPGKAPKLLIYNTNNLQTGVPSRFSGSGSGTDFTLTISSLQPEDIATYYCLQHISRPRTFGTGTKLELK
notes: also called DIVH2IDIVK2; DIVHv2/DIVKv2
B2: DIVH2/DIVK5 (antibody, human IgG1, V domains shown)
VH: EVQLLESGGGLVQPGGSLRLSCAGSGFTFTDFYMNWIRQPPGKAPEWIGFIRDKAKGYTTEYNPSVKGRFTISRDNSKNTLYLQMNSLRAEDTAVYYCAREGHTAAPFDYWGQGTLVTVSS
VL: DIQMTQSPSSLSASVGDRVTITCKASQNIDKYLNWYQQKPGKSPKLLIYNTNNLQTGVPSRFSGSGSGTDFTLTISSLQPEDIATYYCLQHISRPRTFGTGTKLELK
notes: also called DIVHv2/DIVKv5; CAMPATH-1G DIVHv2/DIVKv5
B3: DIVH1/DIVK4 (antibody, human IgG1, V domains shown)
VH: EVQLLESGGGLVQPGGSLRLSCAGSGFTFTDFYMNWVRQAPGKGLEWVGFIRDKAKGYTTEYNPSVKGRFTISRDNSKNTLYLQMNSLRAEDTAVYYCAREGHTAAPFDYWGQGTLVTVSS
VL: DIQMTQSPSSLSASVGDRVTITCKASQNIDKYLNWYQQKPGKAPKSLIYNTNNLQTGVPSRFSGSGSGTDFTLTISSLQPEDIATYYCLQHISRPRTFGTGTKLELK
notes: also called DIVHv1/DIVKv4
B4: DIVH4/DIVK1 (antibody, human IgG1, V domains shown)
VH: EVQLLESGGGLVQPGGSLRLSCAGSGFTFTDFYMNWVRQAPGKGLEWVGFIRDKAKGYTTEYNPSVKGRFTISRDNAKNSLYLQMNSLRAEDTAVYYCAREGHTAAPFDYWGQGTLVTVSS
VL: DIQMTQSPSSLSASVGDRVTITCRASQNIDKYLNWYQQKPGKAPKSLIYNTNNLQSGVPSRFSGSGSGTDFTLTISSLQPEDIATYYCLQHISRPRTFGTGTKLELK
notes: also called DIVHv4/DIVKv1
B5: DIVH5/DIVK3 (antibody, human IgG1, V domains shown)
VH: EVQLLESGGGLVQPGGSLRLSCAGSGFTFTDFYMNWIRQPPGKAPEWLGFIRDKAKGYTTEYNPSVKGRFTISRDNSKNTLYLQMNSLRAEDTAVYYCAREGHTAAPFDYWGQGTLVTVSS
VL: DIQMTQSPSSLSASVGDRVTITCRASQNIDKYLNWYQQKPGKAPKLLIYNTNNLQSGVPSRFSGSGSGTDFTLTISSLQPEDIATYYCLQHISRPRTFGTGTKLELK
notes: also called DIVHv5/DIVKv3
B6: DIVH1/DIVK1 (antibody, human IgG1, V domains shown)
VH: EVQLLESGGGLVQPGGSLRLSCAGSGFTFTDFYMNWVRQAPGKGLEWVGFIRDKAKGYTTEYNPSVKGRFTISRDNSKNTLYLQMNSLRAEDTAVYYCAREGHTAAPFDYWGQGTLVTVSS
VL: DIQMTQSPSSLSASVGDRVTITCRASQNIDKYLNWYQQKPGKAPKSLIYNTNNLQSGVPSRFSGSGSGTDFTLTISSLQPEDIATYYCLQHISRPRTFGTGTKLELK
notes: also called DIVHv1/DIVKv1
B7: DIVH1/DIVK2 (antibody, human IgG1, V domains shown)
VH: EVQLLESGGGLVQPGGSLRLSCAGSGFTFTDFYMNWVRQAPGKGLEWVGFIRDKAKGYTTEYNPSVKGRFTISRDNSKNTLYLQMNSLRAEDTAVYYCAREGHTAAPFDYWGQGTLVTVSS
VL: DIQMTQSPSSLSASVGDRVTITCKASQNIDKYLNWYQQKPGKAPKLLIYNTNNLQTGVPSRFSGSGSGTDFTLTISSLQPEDIATYYCLQHISRPRTFGTGTKLELK
notes: also called DIVHv1/DIVKv2
B8: DIVH5/DIVK1 (antibody, human IgG1, V domains shown)
VH: EVQLLESGGGLVQPGGSLRLSCAGSGFTFTDFYMNWIRQPPGKAPEWLGFIRDKAKGYTTEYNPSVKGRFTISRDNSKNTLYLQMNSLRAEDTAVYYCAREGHTAAPFDYWGQGTLVTVSS
VL: DIQMTQSPSSLSASVGDRVTITCRASQNIDKYLNWYQQKPGKAPKSLIYNTNNLQSGVPSRFSGSGSGTDFTLTISSLQPEDIATYYCLQHISRPRTFGTGTKLELK
notes: also called DIVHv5/DIVKv1
B9: DIVH1/DIVK5 (antibody, human IgG1, V domains shown)
VH: EVQLLESGGGLVQPGGSLRLSCAGSGFTFTDFYMNWVRQAPGKGLEWVGFIRDKAKGYTTEYNPSVKGRFTISRDNSKNTLYLQMNSLRAEDTAVYYCAREGHTAAPFDYWGQGTLVTVSS
VL: DIQMTQSPSSLSASVGDRVTITCKASQNIDKYLNWYQQKPGKSPKLLIYNTNNLQTGVPSRFSGSGSGTDFTLTISSLQPEDIATYYCLQHISRPRTFGTGTKLELK
notes: also called DIVHv1/DIVKv5
B10: DIVH4/DIVK2 (antibody, human IgG1, V domains shown)
VH: EVQLLESGGGLVQPGGSLRLSCAGSGFTFTDFYMNWVRQAPGKGLEWVGFIRDKAKGYTTEYNPSVKGRFTISRDNAKNSLYLQMNSLRAEDTAVYYCAREGHTAAPFDYWGQGTLVTVSS
VL: DIQMTQSPSSLSASVGDRVTITCKASQNIDKYLNWYQQKPGKAPKLLIYNTNNLQTGVPSRFSGSGSGTDFTLTISSLQPEDIATYYCLQHISRPRTFGTGTKLELK
notes: also called DIVHv4/DIVKv2
B11: DIVH2/DIVK4 (antibody, human IgG1, V domains shown)
VH: EVQLLESGGGLVQPGGSLRLSCAGSGFTFTDFYMNWIRQPPGKAPEWIGFIRDKAKGYTTEYNPSVKGRFTISRDNSKNTLYLQMNSLRAEDTAVYYCAREGHTAAPFDYWGQGTLVTVSS
VL: DIQMTQSPSSLSASVGDRVTITCKASQNIDKYLNWYQQKPGKAPKSLIYNTNNLQTGVPSRFSGSGSGTDFTLTISSLQPEDIATYYCLQHISRPRTFGTGTKLELK
notes: also called DIVHv2/DIVKv4
B12: DIVH2/DIVK1 (antibody, human IgG1, V domains shown)
VH: EVQLLESGGGLVQPGGSLRLSCAGSGFTFTDFYMNWIRQPPGKAPEWIGFIRDKAKGYTTEYNPSVKGRFTISRDNSKNTLYLQMNSLRAEDTAVYYCAREGHTAAPFDYWGQGTLVTVSS
VL: DIQMTQSPSSLSASVGDRVTITCRASQNIDKYLNWYQQKPGKAPKSLIYNTNNLQSGVPSRFSGSGSGTDFTLTISSLQPEDIATYYCLQHISRPRTFGTGTKLELK
notes: also called DIVHv2/DIVKv1
B13: DIVH5/DIVK2 (antibody, human IgG1, V domains shown)
VH: EVQLLESGGGLVQPGGSLRLSCAGSGFTFTDFYMNWIRQPPGKAPEWLGFIRDKAKGYTTEYNPSVKGRFTISRDNSKNTLYLQMNSLRAEDTAVYYCAREGHTAAPFDYWGQGTLVTVSS
VL: DIQMTQSPSSLSASVGDRVTITCKASQNIDKYLNWYQQKPGKAPKLLIYNTNNLQTGVPSRFSGSGSGTDFTLTISSLQPEDIATYYCLQHISRPRTFGTGTKLELK
notes: also called DIVHv5/DIVKv2
B14: DIVH4/DIVK5 (antibody, human IgG1, V domains shown)
VH: EVQLLESGGGLVQPGGSLRLSCAGSGFTFTDFYMNWVRQAPGKGLEWVGFIRDKAKGYTTEYNPSVKGRFTISRDNAKNSLYLQMNSLRAEDTAVYYCAREGHTAAPFDYWGQGTLVTVSS
VL: DIQMTQSPSSLSASVGDRVTITCKASQNIDKYLNWYQQKPGKSPKLLIYNTNNLQTGVPSRFSGSGSGTDFTLTISSLQPEDIATYYCLQHISRPRTFGTGTKLELK
notes: also called DIVHv4/DIVKv5
B15: DIVH4/DIVK3 (antibody, human IgG1, V domains shown)
VH: EVQLLESGGGLVQPGGSLRLSCAGSGFTFTDFYMNWVRQAPGKGLEWVGFIRDKAKGYTTEYNPSVKGRFTISRDNAKNSLYLQMNSLRAEDTAVYYCAREGHTAAPFDYWGQGTLVTVSS
VL: DIQMTQSPSSLSASVGDRVTITCRASQNIDKYLNWYQQKPGKAPKLLIYNTNNLQSGVPSRFSGSGSGTDFTLTISSLQPEDIATYYCLQHISRPRTFGTGTKLELK
notes: also called DIVHv4/DIVKv3
B16: DIVH4/DIVK4 (antibody, human IgG1, V domains shown)
VH: EVQLLESGGGLVQPGGSLRLSCAGSGFTFTDFYMNWVRQAPGKGLEWVGFIRDKAKGYTTEYNPSVKGRFTISRDNAKNSLYLQMNSLRAEDTAVYYCAREGHTAAPFDYWGQGTLVTVSS
VL: DIQMTQSPSSLSASVGDRVTITCKASQNIDKYLNWYQQKPGKAPKSLIYNTNNLQTGVPSRFSGSGSGTDFTLTISSLQPEDIATYYCLQHISRPRTFGTGTKLELK
notes: also called DIVHv4/DIVKv4
B17: DIVH2/DIVK3 (antibody, human IgG1, V domains shown)
VH: EVQLLESGGGLVQPGGSLRLSCAGSGFTFTDFYMNWIRQPPGKAPEWIGFIRDKAKGYTTEYNPSVKGRFTISRDNSKNTLYLQMNSLRAEDTAVYYCAREGHTAAPFDYWGQGTLVTVSS
VL: DIQMTQSPSSLSASVGDRVTITCRASQNIDKYLNWYQQKPGKAPKLLIYNTNNLQSGVPSRFSGSGSGTDFTLTISSLQPEDIATYYCLQHISRPRTFGTGTKLELK
notes: also called DIVHv2/DIVKv3
B18: DIVH1/DIVK3 (antibody, human IgG1, V domains shown)
VH: EVQLLESGGGLVQPGGSLRLSCAGSGFTFTDFYMNWVRQAPGKGLEWVGFIRDKAKGYTTEYNPSVKGRFTISRDNSKNTLYLQMNSLRAEDTAVYYCAREGHTAAPFDYWGQGTLVTVSS
VL: DIQMTQSPSSLSASVGDRVTITCRASQNIDKYLNWYQQKPGKAPKLLIYNTNNLQSGVPSRFSGSGSGTDFTLTISSLQPEDIATYYCLQHISRPRTFGTGTKLELK
notes: also called DIVHv1/DIVKv3
B19: DIVH3/DIVK2 (antibody, human IgG1, V domains shown)
VH: EVKLQESGGGLVQPGGSMRISCSGSGFTFTDFYMNWIRQPPGKGPEWIGFIRDKAKGYTTEYNPSVKGRFTISRDNTQNTLHLQANTLRAEDTAVYYCAREGHTAAPFDYWGQGTTVTVSS
VL: DIQMTQSPSSLSASVGDRVTITCKASQNIDKYLNWYQQKPGKAPKLLIYNTNNLQTGVPSRFSGSGSGTDFTLTISSLQPEDIATYYCLQHISRPRTFGTGTKLELK
notes: also called DIVHv3/DIVKv2

The experiment has as its target T1, CD52 human leukocyte antigen. As to the kind of experiment: FACS on HUT-78 cells (CD52+), FITC anti-human IgG Fc, median fluorescence, 4-parameter fit; titre = 50% of maximum binding. The procedure: Human T-cell lymphoma cell line HUT-78 is CD52 positive and was used to assess binding of the modified antibodies of the present invention. In the present example, different concentrations of test antibody were incubated with the cells and the amount of bound antibody was assessed following incubation with a fluorescent-labelled reporter reagent. The reporter is measured using a fluorescence activated cell sorter (FACS).
For detection, the cells were incubated for 1 hour on ice with a 1:1000 dilution of FITC-labelled anti-human IgG Fc domain. This reagent is a goat anti-human IgG (Fc specific) obtained from Sigma (Poole, UK). The cells were washed as previously and re-suspended in 100 μl of PBS/2% FBS and transferred to 4 ml FACS tubes (Becton Dickinson) containing 900 μl of PBS/2% FBS/Propidium Iodide (1:1000). The cells were analysed using a conventional Becton Dickenson FACS Calibur instrument.
The binding of the test and control antibodies was determined using the Median Fluorescence value. The saturating concentration of antibody was determined from plots of the Median Fluorescence—Zero Antibody Median Fluorescence versus Concentration of antibody. The binding curves were fitted to a logistic 4 parameter sigmoidal equation using SigmaPlot, giving an excellent fit with 95% confidence levels.
As for B1, the EC50 was found to be 3.7 µg/mL.
In turn, B2 yielded an EC50 of 1.18 µg/mL.
The molecule B3 showed an EC50 of 3.45 µg/mL.
The same measure for B4: 4.43 µg/mL; for B5: 2.55 µg/mL.
Molecule B6 gave an EC50 of 2.99 µg/mL.
The same measure for B7: 1.66 µg/mL; for B8: 4.01 µg/mL; for B9: 1.85 µg/mL.
As to B10, a half-maximal effect (EC50) was put at 1.59 µg/mL.
The same measure for B11: 6.21 µg/mL; for B12: 5.56 µg/mL.
Under B13 stands 2.45 µg/mL; under B14, 2.39 µg/mL; under B15, 2.28 µg/mL.
B16: the EC50 came out at 8.54 µg/mL.
The same measure for B17: 3.89 µg/mL.
For the molecule B18, the EC50 turned out to be 1.71 µg/mL.
The same measure for B19: 17.8 µg/mL.

Usually EC50 stands for the concentration that produces a half-maximal response. High values mean weaker potency, low ones greater potency.

The values are drawn from US20050152898A1 (BIOVATION, published 2005).
